Data reported in the Immune Epitope Database (IEDB).

Columns and labels:
Test in all cases: IEDB peptide-MHC binding, purified MHC/direct/fluorescence; filed as Kd, often an IC50 or EC50 that approximates it; ≥ and ≤ were set here for values at or beyond the usual limits of such assays
Conditions in all cases: source organism: Cryptosporidium parvum Iowa II
[1] = biological target: HLA-A*02:03
[2] = biological target: HLA-A*02:12
[3] = biological target: HLA-A*02:16
[4] = biological target: HLA-A*23:01
[5] = biological target: HLA-A*29:02
[6] = biological target: HLA-B*46:01
[7] = biological target: HLA-B*57:01

Measured: Kd

TVFRNQNRV
≥ 20 µM: all assays above
